{"source": "patent US7625566", "key": {"[1]": {"biological_target": "human monoclonal anti-HIV-1 antibody 2F5 (isotype not stated in the assay)", "experiment": "competition ELISA: 50 ng/mL 3H6 preincubated with 31 ng/mL 2F5, then 2F5 binding to coated …"}, "[2]": {"biological_target": "human monoclonal anti-HIV-1 antibody 2F5 (isotype not stated in the assay)", "experiment": "competition ELISA: 500 ng/mL 3H6 preincubated with 31 ng/mL 2F5, then 2F5 binding to coated …"}, "[3]": {"biological_target": "human monoclonal anti-HIV-1 antibody 2F5 (isotype not stated in the assay)", "experiment": "cell-based or functional assay"}, "[4]": {"biological_target": "human anti-HIV-1 (gp120 recognizing) antibody 2G12", "experiment": "cell-based or functional assay"}}, "data": [{"binder": "murine monoclonal anti-idiotypic antibody (Ab2) 3H6 (antibody, V domains shown) VH: GVQLQQSGPELVKTGASVKISCKASGYSFTDYFMHWVKQSHGKSLDWIGYINCYTGATNYSQKFKGKATFTVDTSSNTAYMQFNSLTSEDSAVYYCARTSIGYGSSPPFPYWGQGTLVTVSA VL: ETTVTQSPASLSMSIGEKVTIRCITSTDIDDDMNWYQQKPGEPPRLLISDGNTLRPGVPSRFSSSGYGTDFVFTIENMLSEDVADYYCLQSDNLPYTFGGGTNLEIK", "values": [{"measurement": "reduction of the OD", "setting": "[1]", "result": 37, "unit": "%"}, {"measurement": "reduction of OD", "setting": "[2]", "result": 83, "unit": "%"}, {"measurement": "depletion of 2F5 (10 µg/mL) neutralization of HIV-1 NL4-3 on AA-2 cells, p24 ELISA", "setting": "[3]", "result": 3.9, "unit": "µg/mL"}, {"measurement": "reduction of 2F5 (10 µg/mL) neutralization at 3.9 µg/mL 3H6", "setting": "[3]", "result": 95, "unit": "%"}, {"measurement": "reduction of the neutralizing capacity of 2F5 (10 µg/mL) at 1.9 µg/mL 3H6", "setting": "[3]", "result": 5, "unit": "%"}, {"measurement": "reduction of 2G12 (10 µg/mL) neutralization of HIV-1 NL4-3", "setting": "[4]", "result": "> 250", "unit": "µg/mL"}]}]}
